Values joined by “and” are separate entries in the source; they are usually repeats but may differ in a detail not shown here. Equal entries are not always repeated. Each block holds one binder with its values, some of them ahead of it.
Tests used:
Human CLEC12A-His [1] = target: T1, Human CLEC12A-His (human, UniProt Q5QGZ9 65-265); test: SPR Biacore 8K 37 C; TriNKET captured on anti-hFc chip, hCLEC12A-His as analyte; 1:1 fit; pH 8.0 control, n=2
T1 construct: Recombinant soluble protein made in house (Dragonfly Tx); The hCLEC12A spot of the HuProt array is written under this molecule as well; also called hCLEC12A-His; hCLEC12A; not shown: His tag
T1 sequence: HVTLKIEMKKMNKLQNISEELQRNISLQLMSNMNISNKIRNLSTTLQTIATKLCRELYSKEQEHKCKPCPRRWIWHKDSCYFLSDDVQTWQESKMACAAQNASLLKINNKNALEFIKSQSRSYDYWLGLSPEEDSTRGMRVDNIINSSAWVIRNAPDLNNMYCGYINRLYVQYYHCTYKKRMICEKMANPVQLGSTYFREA

mFc-hNKG2D [2] = target: T2, mFc-hNKG2D (human, UniProt P26718 73-216); test: SPR Biacore 8K 37 C; mFc-hNKG2D captured on anti-mFc chip, TriNKET as analyte; steady state fit; pH 8.0 control
T2 construct: extracellular domain; Made in house (Dragonfly Tx); the order of tag and ECD follows the name mFc-hNKG2D; also called mFc-tagged human NKG2D; not shown: mouse Fc tag
T2 sequence (looked up): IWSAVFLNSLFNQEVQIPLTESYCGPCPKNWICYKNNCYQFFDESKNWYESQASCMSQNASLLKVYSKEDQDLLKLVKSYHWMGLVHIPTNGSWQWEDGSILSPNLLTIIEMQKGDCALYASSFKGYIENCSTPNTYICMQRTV

mFc-hNKG2D [3] = target: T2, mFc-hNKG2D; test: SPR Biacore 8K 37 C; mFc-hNKG2D captured on anti-mFc chip, TriNKET as analyte; 1:1 kinetic fit; control sample, n=3
[4] = target: T3, Human CD16a V158 (FcγRIIIa V158) (human, UniProt P08637 17-208, biotinylated (site not stated)); test: SPR; biotinylated CD16a V158 captured on SA chip, TriNKET as analyte; 1:1 kinetic fit; after 4 wks 40 C in phosphate/citrate/NaCl pH 7.8
T3 construct: V158 is the allele name in mature numbering; also called hCD16aV; hCD16a V158

Human CLEC12A-His [5] = target: T4, Human CLEC12A-His (human, UniProt Q5QGZ9 65-265); test: SPR; control sample (HST pH 6.0 study)
T4 construct: Recombinant soluble protein made in house; also called hCLEC12A-His; hCLEC12A; not shown: His tag
T4 sequence: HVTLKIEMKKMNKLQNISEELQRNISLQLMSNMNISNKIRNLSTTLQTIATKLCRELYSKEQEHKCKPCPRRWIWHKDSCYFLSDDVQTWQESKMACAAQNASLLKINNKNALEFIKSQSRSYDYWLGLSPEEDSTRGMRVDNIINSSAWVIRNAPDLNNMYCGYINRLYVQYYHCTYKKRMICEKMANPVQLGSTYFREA

mFc-hNKG2D [6] = target: T5, mFc-hNKG2D (human, UniProt P26718 73-216); test: SPR; control sample (HST pH 6.0 study)
T5 construct: extracellular domain; Recombinant mFc-tagged NKG2D dimer, made in house; also called human NKG2D; not shown: mouse Fc tag
T5 sequence (looked up): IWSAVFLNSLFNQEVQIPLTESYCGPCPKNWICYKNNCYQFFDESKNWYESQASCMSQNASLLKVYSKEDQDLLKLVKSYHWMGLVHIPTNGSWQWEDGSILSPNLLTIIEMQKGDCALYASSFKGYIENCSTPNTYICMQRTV

Human CD16a V158 = target: T6, Human CD16a V158 (human, UniProt P08637 17-208, biotinylated); test: SPR; control sample (HST pH 6.0 study)
T6 construct: Bought recombinant receptor; also called hCD16a (V158); hFcγRIIIa V158

[7] = target: T7, human CLEC12A on cells (HL60, PL21, Ba/F3-hCLEC12A) (human, UniProt Q5QGZ9 1-265); test: flow cytometry, PL21 cells
T7 construct: Endogenous on the AML lines HL60 and PL21; brought into mouse Ba/F3 cells by retroviral transduction; The cell line stands under assay; also called CLL-1
T7 sequence: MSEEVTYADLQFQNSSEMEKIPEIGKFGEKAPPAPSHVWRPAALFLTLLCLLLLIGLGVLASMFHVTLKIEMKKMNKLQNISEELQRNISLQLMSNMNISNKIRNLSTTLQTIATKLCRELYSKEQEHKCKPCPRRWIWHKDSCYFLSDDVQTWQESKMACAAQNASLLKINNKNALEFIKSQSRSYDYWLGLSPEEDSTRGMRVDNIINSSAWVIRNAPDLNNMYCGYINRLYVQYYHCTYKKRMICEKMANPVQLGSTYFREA

recombinant human CD64 = target: T8, recombinant human CD64 (human, UniProt P12314 16-288, biotinylated); test: SPR 25C, kinetic fit
T8 construct: also called hFcγRI; hCD64

[8] = target: T9, human CLEC12A expressed on cells (human, UniProt Q5QGZ9 1-265); test: flow cytometry, HL60
T9 construct: Transduced isogenic cells or endogenous expression on AML cells; also called RMA-hCLEC12A; Ba/F3-hCLEC12A
T9 sequence: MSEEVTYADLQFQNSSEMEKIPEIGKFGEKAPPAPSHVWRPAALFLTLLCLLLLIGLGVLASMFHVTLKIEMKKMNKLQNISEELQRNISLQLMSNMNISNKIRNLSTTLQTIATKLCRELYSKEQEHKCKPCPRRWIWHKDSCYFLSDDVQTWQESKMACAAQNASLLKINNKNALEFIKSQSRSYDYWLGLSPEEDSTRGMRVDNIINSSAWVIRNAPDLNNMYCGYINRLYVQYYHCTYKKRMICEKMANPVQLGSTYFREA

T8 sequence (P12314 16-288 limits assumed): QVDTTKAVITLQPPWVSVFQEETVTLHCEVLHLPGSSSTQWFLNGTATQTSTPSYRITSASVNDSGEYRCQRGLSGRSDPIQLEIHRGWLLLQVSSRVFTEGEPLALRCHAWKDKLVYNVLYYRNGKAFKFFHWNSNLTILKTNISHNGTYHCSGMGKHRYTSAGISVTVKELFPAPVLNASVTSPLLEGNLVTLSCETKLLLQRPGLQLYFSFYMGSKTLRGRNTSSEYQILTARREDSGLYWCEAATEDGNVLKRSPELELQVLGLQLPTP
T3 sequence (P08637 17-208 F176V limits assumed): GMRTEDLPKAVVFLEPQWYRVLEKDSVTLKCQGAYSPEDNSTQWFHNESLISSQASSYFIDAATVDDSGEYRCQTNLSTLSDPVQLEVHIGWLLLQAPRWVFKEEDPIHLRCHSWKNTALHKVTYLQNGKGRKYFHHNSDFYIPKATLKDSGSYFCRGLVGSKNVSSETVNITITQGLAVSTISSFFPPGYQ
T6 sequence (P08637 17-208 F176V limits assumed): as above

Kd (Human CLEC12A-His [1]): 1.1 nM
koff (Human CLEC12A-His [1]): 0.00084 s⁻¹
kon (Human CLEC12A-His [1]): 801000 M⁻¹ s⁻¹
Kd (mFc-hNKG2D [2]): 695 nM
Kd (mFc-hNKG2D [3]): 661 nM
koff (mFc-hNKG2D [3]): 0.139 s⁻¹
kon (mFc-hNKG2D [3]): 211000 M⁻¹ s⁻¹
Kd [4]: 216 nM
koff [4]: 0.0209 s⁻¹
kon [4]: 96700 M⁻¹ s⁻¹
B1: F3'-1602 TriNKET (bispecific antibody, human IgG1, kappa)
chain: QLQLQESGPGLVKPSETLSLTCTVSGFSLTNYGLHWIRQPPGKCLEWIGVIWSGGKTDYNPSLKSRVTISKDTSKNQFSLKLSSVQAADTAVYYCAKYDYDDSLDYWGQGTLVTVSSGGGGSGGGGSGGGGSGGGGSDIQMTQSPSSLSASVGDRVTITCHASQNINFWLSWYQQKPGKAPKLLIYEASNLHTGVPSRFSGSGSGTRFTLTISSLQPEDIATYYCQQSHSYPLTFGCGTKLEIKGSDKTHTCPPCPAPELLGGPSVFLFPPKPKDTLMISRTPEVTCVVVDVSHEDPEVKFNWYVDGVEVHNAKTKPREEQYNSTYRVVSVLTVLHQDWLNGKEYKCKVSNKALPAPIEKTISKAKGQPREPRVYTLPPCRDELTKNQVSLTCLVKGFYPSDIAVEWESNGQPENNYKTTPPVLVSDGSFTLYSKLTVDKSRWQQGNVFSCSVMHEALHNHYTQKSLSLSPG
heavy: EVQLVESGGGLVKPGGSLRLSCAASGFTFSSYSMNWVRQAPGKGLEWVSSISSSSSYIYYADSVKGRFTISRDNAKNSLYLQMNSLRAEDTAVYYCARGAPIGAAAGWFDPWGQGTLVTVSSASTKGPSVFPLAPSSKSTSGGTAALGCLVKDYFPEPVTVSWNSGALTSGVHTFPAVLQSSGLYSLSSVVTVPSSSLGTQTYICNVNHKPSNTKVDKKVEPKSCDKTHTCPPCPAPELLGGPSVFLFPPKPKDTLMISRTPEVTCVVVDVSHEDPEVKFNWYVDGVEVHNAKTKPREEQYNSTYRVVSVLTVLHQDWLNGKEYKCKVSNKALPAPIEKTISKAKGQPREPQVCTLPPSRDELTENQVSLTCLVKGFYPSDIAVEWESNGQPENNYKTTPPVLDSDGSFFLYSWLTVDKSRWQQGNVFSCSVMHEALHNHYTQKSLSLSPG
light: DIQMTQSPSSVSASVGDRVTITCRASQGISSWLAWYQQKPGKAPKLLIYAASSLQSGVPSRFSGSGSGTDFTLTISSLQPEDFATYYCQQGVSFPRTFGGGTKVEIKRTVAAPSVFIFPPSDEQLKSGTASVVCLLNNFYPREAKVQWKVDNALQSGNSQESVTEQDSKDSTYSLSSTLTLSKADYEKHKVYACEVTHQGLSSPVTKSFNRGEC
notes: Trispecific F3' format: CLEC12A scFv-Fc paired with NKG2D Fab-Fc; Stressed and control samples of the stability studies are the same molecule; also called AB0237

Kd (Human CLEC12A-His [5]): 1.81 nM
koff (Human CLEC12A-His [5]): 0.0014 s⁻¹
kon (Human CLEC12A-His [5]): 776000 M⁻¹ s⁻¹
Kd (mFc-hNKG2D [6]): 588 nM
koff (mFc-hNKG2D [6]): 0.122 s⁻¹
kon (mFc-hNKG2D [6]): 208000 M⁻¹ s⁻¹
Kd (Human CD16a V158): 171 nM
koff (Human CD16a V158): 0.0199 s⁻¹
kon (Human CD16a V158): 117000 M⁻¹ s⁻¹
EC50 [7]: 0.37 nM
FOB (fold over background) [7]: 12 fold
B2: AB0192 TriNKET (other)
chain: EVQLVESGGGVVQPGGSLRLSCAASGFTFNAFGMHWVRQAPGKCLEWVAFISSGSTSIYYANTVKGRFTISRDNSKNTLYLQMNSLRAEDTAVYYCARDGYPTGGAMDYWGQGTSVTVSSGGGGSGGGGSGGGGSGGGGSDIQMTQSPSSLSASVGDRVTITCKASQDIYNYLSWFQQKPGKAPKPLIYRANILVSGVPSRFSGSGSGQDYTFTISSLQPEDIATYYCLQFDAFPFTFGCGTKLEIKGSDKTHTCPPCPAPELLGGPSVFLFPPKPKDTLMISRTPEVTCVVVDVSHEDPEVKFNWYVDGVEVHNAKTKPREEQYNSTYRVVSVLTVLHQDWLNGKEYKCKVSNKALPAPIEKTISKAKGQPREPRVYTLPPCRDELTKNQVSLTCLVKGFYPSDIAVEWESNGQPENNYKTTPPVLVSDGSFTLYSKLTVDKSRWQQGNVFSCSVMHEALHNHYTQKSLSLSPG
heavy: EVQLVESGGGLVKPGGSLRLSCAASGFTFSSYSMNWVRQAPGKGLEWVSSISSSSSYIYYADSVKGRFTISRDNAKNSLYLQMNSLRAEDTAVYYCARGAPIGAAAGWFDPWGQGTLVTVSSASTKGPSVFPLAPSSKSTSGGTAALGCLVKDYFPEPVTVSWNSGALTSGVHTFPAVLQSSGLYSLSSVVTVPSSSLGTQTYICNVNHKPSNTKVDKKVEPKSCDKTHTCPPCPAPELLGGPSVFLFPPKPKDTLMISRTPEVTCVVVDVSHEDPEVKFNWYVDGVEVHNAKTKPREEQYNSTYRVVSVLTVLHQDWLNGKEYKCKVSNKALPAPIEKTISKAKGQPREPQVCTLPPSRDELTENQVSLTCLVKGFYPSDIAVEWESNGQPENNYKTTPPVLDSDGSFFLYSWLTVDKSRWQQGNVFSCSVMHEALHNHYTQKSLSLSPG
light: DIQMTQSPSSVSASVGDRVTITCRASQGISSWLAWYQQKPGKAPKLLIYAASSLQSGVPSRFSGSGSGTDFTLTISSLQPEDFATYYCQQGVSFPRTFGGGTKVEIKRTVAAPSVFIFPPSDEQLKSGTASVVCLLNNFYPREAKVQWKVDNALQSGNSQESVTEQDSKDSTYSLSSTLTLSKADYEKHKVYACEVTHQGLSSPVTKSFNRGEC
notes: the condition stands under assay; also called AB0192 Lot AB0192-005

Kd (recombinant human CD64): 5.2 nM and 5.3 nM
koff (recombinant human CD64): 0.00027 s⁻¹ and 0.00028 s⁻¹ and 0.00026 s⁻¹
kon (recombinant human CD64): 53000 M⁻¹ s⁻¹ and 52000 M⁻¹ s⁻¹ and 51000 M⁻¹ s⁻¹
EC50 [8]: 1.6 nM
Max binding MFI [8]: 924 MFI
B3: F3'-1602 TriNKET (other)
chain: QLQLQESGPGLVKPSETLSLTCTVSGFSLTNYGLHWIRQPPGKCLEWIGVIWSGGKTDYNPSLKSRVTISKDTSKNQFSLKLSSVQAADTAVYYCAKYDYDDSLDYWGQGTLVTVSSGGGGSGGGGSGGGGSGGGGSDIQMTQSPSSLSASVGDRVTITCHASQNINFWLSWYQQKPGKAPKLLIYEASNLHTGVPSRFSGSGSGTRFTLTISSLQPEDIATYYCQQSHSYPLTFGCGTKLEIKGSDKTHTCPPCPAPELLGGPSVFLFPPKPKDTLMISRTPEVTCVVVDVSHEDPEVKFNWYVDGVEVHNAKTKPREEQYNSTYRVVSVLTVLHQDWLNGKEYKCKVSNKALPAPIEKTISKAKGQPREPRVYTLPPCRDELTKNQVSLTCLVKGFYPSDIAVEWESNGQPENNYKTTPPVLVSDGSFTLYSKLTVDKSRWQQGNVFSCSVMHEALHNHYTQKSLSLSPG
heavy: EVQLVESGGGLVKPGGSLRLSCAASGFTFSSYSMNWVRQAPGKGLEWVSSISSSSSYIYYADSVKGRFTISRDNAKNSLYLQMNSLRAEDTAVYYCARGAPIGAAAGWFDPWGQGTLVTVSSASTKGPSVFPLAPSSKSTSGGTAALGCLVKDYFPEPVTVSWNSGALTSGVHTFPAVLQSSGLYSLSSVVTVPSSSLGTQTYICNVNHKPSNTKVDKKVEPKSCDKTHTCPPCPAPELLGGPSVFLFPPKPKDTLMISRTPEVTCVVVDVSHEDPEVKFNWYVDGVEVHNAKTKPREEQYNSTYRVVSVLTVLHQDWLNGKEYKCKVSNKALPAPIEKTISKAKGQPREPQVCTLPPSRDELTENQVSLTCLVKGFYPSDIAVEWESNGQPENNYKTTPPVLDSDGSFFLYSWLTVDKSRWQQGNVFSCSVMHEALHNHYTQKSLSLSPG
light: DIQMTQSPSSVSASVGDRVTITCRASQGISSWLAWYQQKPGKAPKLLIYAASSLQSGVPSRFSGSGSGTDFTLTISSLQPEDFATYYCQQGVSFPRTFGGGTKVEIKRTVAAPSVFIFPPSDEQLKSGTASVVCLLNNFYPREAKVQWKVDNALQSGNSQESVTEQDSKDSTYSLSSTLTLSKADYEKHKVYACEVTHQGLSSPVTKSFNRGEC
notes: CLEC12A scFv-Fc, NKG2D A49MI Fab-Fc, human IgG1 Fc; also called AB0237

Source: patent publication US20220119534A1 (DRAGONFLY THERAPEUTICS, published 2022)
